Non-standard residues stand in square brackets, D forms with d. No end group written: not given here. *: point of attachment. Palmitoyl = CCCCCCCCCCCCCCCC(=O)*; Myristoyl = CCCCCCCCCCCCCC(=O)*; Aib = CC(C)(N)C(=O)O
B1: mt-346 (peptide)
peptide: H[Aib]QGTFTSDYSKYLDEQAAKEFICWLMNGGPSSGAPPPSK-NH2
modifications: N-terminus assumed
SMILES: CC[C@H](C)[C@H](NC(=O)[C@H](Cc1ccccc1)NC(=O)[C@H](CCC(=O)O)NC(=O)[C@H](CCCCN)NC(=O)[C@H](C)NC(=O)[C@H](C)NC(=O)[C@H](CCC(N)=O)NC(=O)[C@H](CCC(=O)O)NC(=O)[C@H](CC(=O)O)NC(=O)[C@H](CC(C)C)NC(=O)[C@H](Cc1ccc(O)cc1)NC(=O)[C@H](CCCCN)NC(=O)[C@H](CO)NC(=O)[C@H](Cc1ccc(O)cc1)NC(=O)[C@H](CC(=O)O)NC(=O)[C@H](CO)NC(=O)[C@@H](NC(=O)[C@H](Cc1ccccc1)NC(=O)[C@@H](NC(=O)CNC(=O)[C@H](CCC(N)=O)NC(=O)C(C)(C)NC(=O)[C@@H](N)Cc1c[nH]cn1)[C@@H](C)O)[C@@H](C)O)C(=O)N[C@@H](CS)C(=O)N[C@@H](Cc1c[nH]c2ccccc12)C(=O)N[C@@H](CC(C)C)C(=O)N[C@@H](CCSC)C(=O)N[C@@H](CC(N)=O)C(=O)NCC(=O)NCC(=O)N1CCC[C@H]1C(=O)N[C@@H](CO)C(=O)N[C@@H](CO)C(=O)NCC(=O)N[C@@H](C)C(=O)N1CCC[C@H]1C(=O)N1CCC[C@H]1C(=O)N1CCC[C@H]1C(=O)N[C@@H](CO)C(=O)N[C@@H](CCCCN)C(N)=O
B2: mt-361 (peptide)
peptide: H[Aib]QGTFTSDYSIYLD[Aib]QAAKEFVNWLMNGGPSSGAPPPSK-NH2
modifications: N-terminus assumed
SMILES: CC[C@H](C)[C@H](NC(=O)[C@H](CO)NC(=O)[C@H](Cc1ccc(O)cc1)NC(=O)[C@H](CC(=O)O)NC(=O)[C@H](CO)NC(=O)[C@@H](NC(=O)[C@H](Cc1ccccc1)NC(=O)[C@@H](NC(=O)CNC(=O)[C@H](CCC(N)=O)NC(=O)C(C)(C)NC(=O)[C@@H](N)Cc1c[nH]cn1)[C@@H](C)O)[C@@H](C)O)C(=O)N[C@@H](Cc1ccc(O)cc1)C(=O)N[C@@H](CC(C)C)C(=O)N[C@@H](CC(=O)O)C(=O)NC(C)(C)C(=O)N[C@@H](CCC(N)=O)C(=O)N[C@@H](C)C(=O)N[C@@H](C)C(=O)N[C@@H](CCCCN)C(=O)N[C@@H](CCC(=O)O)C(=O)N[C@@H](Cc1ccccc1)C(=O)N[C@H](C(=O)N[C@@H](CC(N)=O)C(=O)N[C@@H](Cc1c[nH]c2ccccc12)C(=O)N[C@@H](CC(C)C)C(=O)N[C@@H](CCSC)C(=O)N[C@@H](CC(N)=O)C(=O)NCC(=O)NCC(=O)N1CCC[C@H]1C(=O)N[C@@H](CO)C(=O)N[C@@H](CO)C(=O)NCC(=O)N[C@@H](C)C(=O)N1CCC[C@H]1C(=O)N1CCC[C@H]1C(=O)N1CCC[C@H]1C(=O)N[C@@H](CO)C(=O)N[C@@H](CCCCN)C(N)=O)C(C)C
B3: mt-362 (peptide)
peptide: H[Aib]QGTFTSDYSIYLD[Aib]QAAKEFVNWLMNGGPSSGAPPPSK(Palmitoyl)-NH2
modifications: N-terminus assumed
SMILES: CCCCCCCCCCCCCCCC(=O)NCCCC[C@H](NC(=O)[C@H](CO)NC(=O)[C@@H]1CCCN1C(=O)[C@@H]1CCCN1C(=O)[C@@H]1CCCN1C(=O)[C@H](C)NC(=O)CNC(=O)[C@H](CO)NC(=O)[C@H](CO)NC(=O)[C@@H]1CCCN1C(=O)CNC(=O)CNC(=O)[C@H](CC(N)=O)NC(=O)[C@H](CCSC)NC(=O)[C@H](CC(C)C)NC(=O)[C@H](Cc1c[nH]c2ccccc12)NC(=O)[C@H](CC(N)=O)NC(=O)[C@@H](NC(=O)[C@H](Cc1ccccc1)NC(=O)[C@H](CCC(=O)O)NC(=O)[C@H](CCCCN)NC(=O)[C@H](C)NC(=O)[C@H](C)NC(=O)[C@H](CCC(N)=O)NC(=O)C(C)(C)NC(=O)[C@H](CC(=O)O)NC(=O)[C@H](CC(C)C)NC(=O)[C@H](Cc1ccc(O)cc1)NC(=O)[C@@H](NC(=O)[C@H](CO)NC(=O)[C@H](Cc1ccc(O)cc1)NC(=O)[C@H](CC(=O)O)NC(=O)[C@H](CO)NC(=O)[C@@H](NC(=O)[C@H](Cc1ccccc1)NC(=O)[C@@H](NC(=O)CNC(=O)[C@H](CCC(N)=O)NC(=O)C(C)(C)NC(=O)[C@@H](N)Cc1c[nH]cn1)[C@@H](C)O)[C@@H](C)O)[C@@H](C)CC)C(C)C)C(N)=O
B4: mt-363 (peptide)
peptide: H[Aib]QGTFTSDYSKYLDEQAAKEFIAWLMNGGPSSGAPPPSK-NH2
modifications: N-terminus assumed
SMILES: CC[C@H](C)[C@H](NC(=O)[C@H](Cc1ccccc1)NC(=O)[C@H](CCC(=O)O)NC(=O)[C@H](CCCCN)NC(=O)[C@H](C)NC(=O)[C@H](C)NC(=O)[C@H](CCC(N)=O)NC(=O)[C@H](CCC(=O)O)NC(=O)[C@H](CC(=O)O)NC(=O)[C@H](CC(C)C)NC(=O)[C@H](Cc1ccc(O)cc1)NC(=O)[C@H](CCCCN)NC(=O)[C@H](CO)NC(=O)[C@H](Cc1ccc(O)cc1)NC(=O)[C@H](CC(=O)O)NC(=O)[C@H](CO)NC(=O)[C@@H](NC(=O)[C@H](Cc1ccccc1)NC(=O)[C@@H](NC(=O)CNC(=O)[C@H](CCC(N)=O)NC(=O)C(C)(C)NC(=O)[C@@H](N)Cc1c[nH]cn1)[C@@H](C)O)[C@@H](C)O)C(=O)N[C@@H](C)C(=O)N[C@@H](Cc1c[nH]c2ccccc12)C(=O)N[C@@H](CC(C)C)C(=O)N[C@@H](CCSC)C(=O)N[C@@H](CC(N)=O)C(=O)NCC(=O)NCC(=O)N1CCC[C@H]1C(=O)N[C@@H](CO)C(=O)N[C@@H](CO)C(=O)NCC(=O)N[C@@H](C)C(=O)N1CCC[C@H]1C(=O)N1CCC[C@H]1C(=O)N1CCC[C@H]1C(=O)N[C@@H](CO)C(=O)N[C@@H](CCCCN)C(N)=O

What follows are binders tested against glucagon receptor, P47871 (assay: cell-based or functional assay).
Chain of glucagon receptor, P47871 (P47871 26-477 limits assumed): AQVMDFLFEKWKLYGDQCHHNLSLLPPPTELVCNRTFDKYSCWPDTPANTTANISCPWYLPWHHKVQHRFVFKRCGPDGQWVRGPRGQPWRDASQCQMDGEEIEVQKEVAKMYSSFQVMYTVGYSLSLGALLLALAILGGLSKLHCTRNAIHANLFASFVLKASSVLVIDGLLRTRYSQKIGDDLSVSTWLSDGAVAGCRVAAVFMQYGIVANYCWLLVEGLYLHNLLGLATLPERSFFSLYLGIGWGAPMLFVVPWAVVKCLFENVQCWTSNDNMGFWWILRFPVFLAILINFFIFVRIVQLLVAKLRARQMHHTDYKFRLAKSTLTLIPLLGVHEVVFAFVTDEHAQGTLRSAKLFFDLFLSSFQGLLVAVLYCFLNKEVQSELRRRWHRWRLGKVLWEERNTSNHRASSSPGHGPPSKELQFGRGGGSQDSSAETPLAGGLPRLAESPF
In the case of B1, the % relative activity is reported as 3.7% and the EC50 is reported as 954 pM. In the case of H[Aib]QGTFTSDYSKYLDEQAAKEFIC(PEG 40 kDa)WLMNGGPSSGAPPPSK(Myristoyl)-NH2 [mt-349], the % relative activity is reported as 3.82% and the EC50 is reported as 549 pM. B2 showed a % relative activity of 3.61% and an EC50 of 1770 pM. B3 gave a % relative activity of 83.2% and an EC50 of 76.8 pM. B4 showed a % relative activity of 7.76% and an EC50 of 823 pM.

Biological target: T1, GIP receptor, P48546
T1 chain: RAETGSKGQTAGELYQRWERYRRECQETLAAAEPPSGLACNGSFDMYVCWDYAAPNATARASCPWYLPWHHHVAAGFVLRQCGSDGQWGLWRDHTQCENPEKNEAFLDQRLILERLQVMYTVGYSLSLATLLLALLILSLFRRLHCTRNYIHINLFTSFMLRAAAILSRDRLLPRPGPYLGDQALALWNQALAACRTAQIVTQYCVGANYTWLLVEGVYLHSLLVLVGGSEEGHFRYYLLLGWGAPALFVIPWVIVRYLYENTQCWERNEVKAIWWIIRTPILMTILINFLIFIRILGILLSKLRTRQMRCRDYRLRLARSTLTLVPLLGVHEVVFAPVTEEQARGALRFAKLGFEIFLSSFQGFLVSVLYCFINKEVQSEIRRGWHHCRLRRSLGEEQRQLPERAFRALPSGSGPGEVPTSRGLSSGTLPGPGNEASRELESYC
Assay: cell-based or functional assay
Binder B1 has a % relative activity of 0.34% and an EC50 of 796 pM. For H[Aib]QGTFTSDYSKYLDEQAAKEFIC(PEG 40 kDa)WLMNGGPSSGAPPPSK(Myristoyl)-NH2 [mt-349], the % relative activity was 0.18% and the EC50 was 1990 pM. Work on B2 yielded a % relative activity of 0.29% and an EC50 of 1050 pM. B3 gave a % relative activity of 3.95% and an EC50 of 78.2 pM. With B4 the % relative activity was 0.73% and the EC50 was 425 pM.

Biological target: T2, GLP-1 receptor, P43220
T2 chain: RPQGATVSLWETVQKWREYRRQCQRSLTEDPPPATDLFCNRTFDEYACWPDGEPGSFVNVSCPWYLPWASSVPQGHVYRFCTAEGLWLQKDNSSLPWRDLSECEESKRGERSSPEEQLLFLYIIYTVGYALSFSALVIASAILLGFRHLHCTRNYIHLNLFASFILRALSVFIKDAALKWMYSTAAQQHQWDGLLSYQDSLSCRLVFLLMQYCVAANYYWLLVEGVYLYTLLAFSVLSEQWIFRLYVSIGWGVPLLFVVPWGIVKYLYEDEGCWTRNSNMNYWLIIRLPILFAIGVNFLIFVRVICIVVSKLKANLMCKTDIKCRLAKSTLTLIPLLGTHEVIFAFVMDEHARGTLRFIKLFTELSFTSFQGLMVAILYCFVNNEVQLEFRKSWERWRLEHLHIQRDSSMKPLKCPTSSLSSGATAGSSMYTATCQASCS
Assay: cell-based or functional assay
For B1, the % relative activity was 367% and the EC50 was 1.5 pM. H[Aib]QGTFTSDYSKYLDEQAAKEFIC(PEG 40 kDa)WLMNGGPSSGAPPPSK(Myristoyl)-NH2 [mt-349] was tested, and the % relative activity was 286% and the EC50 was 2.2 pM. B2 showed a % relative activity of 226% and an EC50 of 10.9 pM. In the case of B3, the % relative activity is reported as 241% and the EC50 is reported as 102 pM. In the case of B4, the % relative activity is reported as 672% and the EC50 is reported as 3.7 pM.
